Data: article PMC12578638

Legend:
[1] = target: hDPEP1-Avi (human DPEP1 residues 17-385) (human) (UniProt P16444); experiment: BLI
[2] = target: biotinylated pDPEP1-Avi (pig DPEP1 residues 17-385) (pig (Sus scrofa)) (UniProt P22412); experiment: BLI
Chain of UniProt P22412 (P22412 17-385): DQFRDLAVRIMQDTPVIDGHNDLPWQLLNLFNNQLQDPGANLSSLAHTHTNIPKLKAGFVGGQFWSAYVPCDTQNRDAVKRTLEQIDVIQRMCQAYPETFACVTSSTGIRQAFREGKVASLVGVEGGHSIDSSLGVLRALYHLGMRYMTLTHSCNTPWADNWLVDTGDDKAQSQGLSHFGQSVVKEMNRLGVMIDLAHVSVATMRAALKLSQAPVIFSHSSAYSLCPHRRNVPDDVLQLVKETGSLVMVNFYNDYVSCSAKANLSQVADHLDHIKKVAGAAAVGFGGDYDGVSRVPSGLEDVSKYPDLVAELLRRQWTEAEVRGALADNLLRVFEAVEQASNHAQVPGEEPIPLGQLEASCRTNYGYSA

Chain of UniProt P16444 (P16444 17-385): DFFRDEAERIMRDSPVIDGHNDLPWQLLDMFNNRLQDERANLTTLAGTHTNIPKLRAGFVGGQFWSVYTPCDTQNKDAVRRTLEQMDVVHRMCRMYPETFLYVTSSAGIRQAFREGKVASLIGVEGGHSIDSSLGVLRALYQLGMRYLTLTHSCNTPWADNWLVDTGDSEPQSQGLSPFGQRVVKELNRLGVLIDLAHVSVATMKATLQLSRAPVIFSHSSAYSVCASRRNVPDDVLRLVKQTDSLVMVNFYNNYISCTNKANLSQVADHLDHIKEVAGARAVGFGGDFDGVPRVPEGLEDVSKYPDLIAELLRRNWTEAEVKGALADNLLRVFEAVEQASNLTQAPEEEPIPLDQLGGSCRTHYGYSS

## PHEV spike RBD (residues 327-605), from Expi293F cells (domain or fragment)
[1]
  Kd: 2990 nM
[2]
  Kd: 1500 nM
